This passage reports Binding affinity (RU) results from patent US20250011363A1, “OPTIMIZED SHORTENED PEPTIDE THAT BINDS TO ACETYLCHOLINE RECEPTOR, AND USE THEREOF” (SKINMED CO., LTD., priority 2021, published 2025).

The experiment addresses acetylcholine receptor. The experiment in a line: SPR, receptor immobilized on CM5 chip, peptide 10 uM. For orientation: SPR reads the build-up and loss of mass on a sensor chip optically.

On to RKPAWR [6mer-1-907], for which the Binding affinity (RU) came to 42 RU.
For KRFWWK [6mer-1-913], the Binding affinity (RU) stood at 27 RU.
Molecule KRANHK [6mer-1-874] had a Binding affinity (RU) of 18 RU.
The value for KGVLRK [6mer-2-403] was 123 RU; that for KKTNGR [6mer-1-875] was 33 RU.
For KRIMEK [6mer-1-889] the value was 25 RU; for RRIPHR [6mer-1-893], 22 RU.
Consider KKHMER [6mer-1-881], for which the Binding affinity (RU) was found to be 20 RU.
The value for KGIYRR [6mer-2-406] was 139 RU; that for RRPAMR [6mer-1-920] was 40 RU.
The value for KGYRKK [6mer-2-405] was 137 RU.
In the case of RRNAAK [6mer-1-916], the Binding affinity (RU) was found to be 33 RU.
As for KRPTIR [6mer-1-910], the Binding affinity (RU) turned out to be 42 RU.
Turning to RRCDHK [6mer-1-929], the Binding affinity (RU) is 25 RU.
For KREWDR [6mer-1-871] the value was 30 RU; for KRADDK [6mer-1-917], 27 RU.
For RKCWWR [6mer-1-894] the value was 18 RU; for RKYWAR [6mer-1-876], 19 RU; for RRDKMK [6mer-1-902], 39 RU.
The value for RRTSNK [6mer-1-890] was 18 RU; that for RRPSIK [6mer-1-897] was 24 RU; that for RRESMR [6mer-1-918] was 33 RU.
As to KKDTKR [6mer-1-904], the Binding affinity (RU) amounted to 31 RU.
Turning to RRICER [6mer-1-905], the Binding affinity (RU) is 36 RU.
For RKPNGR [6mer-1-901] the value was 35 RU; for KQIYRR [6mer-2-408], 139 RU.
For KRESDR [6mer-1-926] the value was 40 RU; for RRKTPR [6mer-1-885], 17 RU; for RRKCVR [6mer-1-914], 39 RU.
For KRYCPK [6mer-1-928] the value was 30 RU.
For RKFCMR [6mer-1-909], the Binding affinity (RU) amounted to 33 RU.
The molecule KRYSRR [6mer-2-402] came in with a Binding affinity (RU) of 145 RU.
KRINHR [6mer-1-887] gave a Binding affinity (RU) of 30 RU.
The value for KKETFR [6mer-1-912] was 33 RU; that for KKHKPR [6mer-1-903] was 37 RU; that for KRKDER [6mer-1-869] was 22 RU.
The value for RKFNWR [6mer-1-924] was 29 RU; that for KKIDDK [6mer-1-883] was 21 RU.
For RKFWHR [6mer-1-921] the value was 36 RU.
With KQVSKR [6mer-2-407], the Binding affinity (RU) came to 122 RU.
In the case of RKTEKR [6mer-1-892], the Binding affinity (RU) came out at 20 RU.
The value for RVLSKR [6mer-2-404] was 121 RU; that for RKDTWK [6mer-1-915] was 27 RU; that for KRMSHR [6mer-1-870] was 25 RU.
For RKDHIK [6mer-1-919] the value was 26 RU; for KKFMVR [6mer-1-908], 37 RU.
The value for KKINGK [6mer-1-906] was 30 RU; that for KRPMDK [6mer-1-880] was 21 RU; that for KRCAAR [6mer-1-911] was 28 RU.
KKNWPR [6mer-1-931] returned a Binding affinity (RU) of 35 RU.
With KKAMHR [6mer-1-925], the Binding affinity (RU) was determined as 42 RU.
The value for KRIWAR [6mer-1-873] was 23 RU; that for KRMKWK [6mer-1-899] was 31 RU; that for RRDWGR [6mer-1-922] was 34 RU.
In turn, KRPCHR [6mer-1-872] registered a Binding affinity (RU) of 23 RU.
The value for KKTANK [6mer-1-888] was 33 RU.
Turning to KRYTKR [6mer-1-884], the Binding affinity (RU) came out at 26 RU.
The value for KRESHR [6mer-1-927] was 37 RU.
The value for RRKDNR [6mer-1-878] was 27 RU.
Regarding RKMAFR [6mer-1-891], the Binding affinity (RU) stood at 13 RU.
Turning to KKPEWR [6mer-1-877], the Binding affinity (RU) worked out at 19 RU.
For RKFSNK [6mer-1-886] the value was 17 RU; for RKATKR [6mer-1-898], 31 RU; for KKDSKK [6mer-1-895], 28 RU.
The value for KKESNK [6mer-1-930] was 43 RU; that for KRDWIK [6mer-1-896] was 11 RU; that for RRASDR [6mer-1-923] was 43 RU.
For RRYNNR [6mer-1-879] the value was 27 RU; for RRDTGR [6mer-1-900], 24 RU; for KKPAMR [6mer-1-882], 25 RU.
KKHHAR [6mer-1-868]: the Binding affinity (RU) came out at 14 RU.
